In US20250064958A1 (Eli Lilly, published 2025) one finds Kd data, which are given here for one molecule.

Test [1] concerns the target T1, Cynomolgous TfR ECD (Cynomolgus).
T1 chain: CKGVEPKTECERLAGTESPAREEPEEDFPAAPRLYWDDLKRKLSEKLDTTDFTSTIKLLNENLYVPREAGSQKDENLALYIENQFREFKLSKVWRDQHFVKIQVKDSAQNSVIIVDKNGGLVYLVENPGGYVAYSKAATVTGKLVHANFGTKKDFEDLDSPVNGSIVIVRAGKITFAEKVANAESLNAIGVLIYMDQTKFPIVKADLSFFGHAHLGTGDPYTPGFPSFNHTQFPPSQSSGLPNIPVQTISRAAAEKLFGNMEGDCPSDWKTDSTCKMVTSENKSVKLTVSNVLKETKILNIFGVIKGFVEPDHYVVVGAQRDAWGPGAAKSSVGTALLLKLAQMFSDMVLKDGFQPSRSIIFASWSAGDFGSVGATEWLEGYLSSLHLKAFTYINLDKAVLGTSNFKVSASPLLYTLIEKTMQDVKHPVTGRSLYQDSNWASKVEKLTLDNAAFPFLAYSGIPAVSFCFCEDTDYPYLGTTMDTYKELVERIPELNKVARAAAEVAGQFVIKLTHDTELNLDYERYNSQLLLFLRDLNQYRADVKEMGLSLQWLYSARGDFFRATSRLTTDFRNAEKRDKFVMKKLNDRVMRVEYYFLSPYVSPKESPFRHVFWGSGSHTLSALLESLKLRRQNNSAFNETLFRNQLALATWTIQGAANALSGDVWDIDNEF
Nature of the test: SPR, Biacore 8K, 37 C, TfR ECD immobilized on CM4 chip, TBP as analyte, 2-state binding model, n = 3. Here is the method:
(§1) Target human and Cynomolgous TfR ECDs were immobilized on a CM4 chip (Cytiva P/N 29104989) using standard NHS-EDC amine coupling. The TfR binding proteins were prepared at a final concentration of 0.3, 0.1, 0.033, 0.01, 0.0033, 0.001, 0.00033, 0.0001 μM respectively by dilution of stock solution into running buffer.
(§2) Binding analysis was performed in a multi-cycle kinetics manner. Each analysis cycle consists of (1) injection of the lowest to highest concentration proteins over all Fc at 50 μL/min for 140 seconds followed by return to buffer flow for 400 seconds to monitor dissociation phase; (2) regeneration of chip surfaces with injection of 3M magnesium chloride, for 30 seconds at 100 μL/min over all cells; and (3) equilibration of chip surfaces with a 50 μL (30-sec) injection of HBS-EP+. Data were processed using standard double-referencing and fit to a 2-state binding model using Biacore 8K Evaluation software, to determine the association rate (kₒₙ, M⁻¹s⁻¹ units), dissociation rate (koff, s⁻¹ units), and Rₘₐₓ (RU units). The equilibrium dissociation constant (KD) is calculated from the relationship KD=koff/kₒₙ, and is in molar units.
Background: Surface plasmon resonance follows binding to a sensor surface in real time, without labels.

Test [2] concerns the target T2, human TfR ECD (human, UniProt P02786 89-760).
T2 construct: extracellular domain; also called human Transferrin Receptor 1 extracellular domain
The test is described as above. As to the method:
as §1, §2

B1: TBP4 (One Arm Heteromab 1, A378C) (antibody, human IgG4 S228P, kappa, F234A L235A)
heavy: EVQLVESGGGLVKPGGSLRLSCVASGFTFSSYSMNWVRQAPGKGLEWVSSISSSSSYIYYADSVKGRFTISRDNAKNSLYLQMNSLRAEDTAVYYCARRHGYSNSDAFDNWGQGTLVTVSSASTKGPSVFPLAPCSRSTSESTAALGCLVKDYFPEPVTVSWNSGALTSGVHTFPAVLQSSGLYSLSSVVTVPSSSLGTKTYTCNVDHKPSNTKVDKRVESKYGPPCPPCPAPEAAGGPSVFLFPPKPKDTLMISRTPEVTCVVVDVSQEDPEVQFNWYVDGVEVHNAKTKPREEQFNSTYRVVSVLTVLHQDWLNGKEYKCKVSNKGLPSSIEKTISKAKGQPREPQVSTLPPSQEEMTKNQVSLMCLVYGFYPSDICVEWESNGQPENNYKTTPPVLDSDGSFFLYSVLTVDKSRWQEGNVFSCSVMHEALHNHYTQKSLSLSLG
light: DIQMTQSPSAMSASVGDRVTITCRASQGISHYLVWFQQKPGKVPKRLIYAASSLQSGVPSRFSGSGSGTEFTLTISSLQPEDFATYYCLQHNSYPWTFGQGTKVEIKRTVAAPSVFIFPPSDEQLKSGTASVVCLLNNFYPREAKVQWKVDNALQSGNSQESVTEQDSKDSTYSLSSTLTLSKADYEKHKVYACEVTHQGLSSPVTKSFNRGEC
chain: ESKYGPPCPPCPAPEAAGGPSVFLFPPKPKDTLMISRTPEVTCVVVDVSQEDPEVQFNWYVDGVEVHNAKTKPREEQFNSTYRVVSVLTVLHQDWLNGKEYKCKVSNKGLPSSIEKTISKAKGQPREPQVYTLPPSQGDMTKNQVQLTCLVKGFYPSDICVEWESNGQPENNYKTTPPVLDSDGSFFLASRLTVDKSRWQEGNVFSCSVMHEALHNHYTQKSLSLSLG
notes: One-arm heteromab, IgG4 PAA, monovalent for human TfR; also called OAH1
The Kd is the equilibrium constant for the complex coming apart. High values mean a looser complex, low ones a tighter complex. Take B1: the dissociation constant (Kd) worked out at 300 nM in test [1] and 154 nM in test [2].
